Here are results for 36 sequences from the supplement of paper PMC10567573.

± gives the standard deviation.

The data set can be described thus: protein stability index of a GFP-peptide fusion (GPS, HEK-293T) (PSI 1-6); higher = more stable. The settings on record: c terminus: a fixed tail appended.
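Note: 24-mer peptide tiles fused after GFP, lentivirally expressed, FACS-sorted into six equal bins by GFP/DsRed ratio, decoded by Illumina sequencing, PSI is the read-weighted mean bin number.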

Regarding RAKCRNMEHALREKAKAFWAMRRS [TRIM35], the protein stability index by setting is: (treatment: DMSO) 2.09 ± 0.36; (treatment: MLN4924 1 uM, 8 h) 2.3 ± 0.34.

For RAVRDRNLLRDDRVLQNLLTIEER [CCND2], the protein stability index runs as follows: (treatment: DMSO) 3.91 ± 0.21; (treatment: MLN4924 1 uM, 8 h) 3.89 ± 0.17.

For the sequence RDHSVRVLISNHVTPFDHNIVNLL [AUP1], the protein stability index reads like this: (treatment: DMSO) 2.1 ± 0.16; (treatment: MLN4924 1 uM, 8 h) 2.12 ± 0.31.

As to RDKARLLREKVEFLRSLRQMKQKV [NFE2L1], the protein stability index is, setting by setting: (treatment: DMSO) 2.73 ± 0.15; (treatment: MLN4924 1 uM, 8 h) 3.14 ± 0.37.

As to REIALAKKHGTQNKRAALQALKRK [CHMP4C], the protein stability index was found to be 4.04 ± 0.14 (treatment: DMSO) and 4.29 ± 0.39 (treatment: MLN4924 1 uM, 8 h).

On to REPQEDSQKDLENDPSVNSQAQET [TOR1AIP2], for which the protein stability index by setting is: (treatment: DMSO) 5.68 ± 0.15; (treatment: MLN4924 1 uM, 8 h) 5.61 ± 0.2.

Take REVSSYPSTVGAEAQEEFLRVLGS [DFFB]: the protein stability index was determined as 4.33 ± 0.22 (treatment: DMSO) and 4.23 ± 0.16 (treatment: MLN4924 1 uM, 8 h).

Take RFALIPAPELVERVQSVDFMRTDP [KLHL14]: the protein stability index was determined as 3.26 ± 0.17 (treatment: DMSO) and 3.26 ± 0.18 (treatment: MLN4924 1 uM, 8 h).

With RFLLKETLNQLQSLQNSLECAMET [NECAB1], the protein stability index came to 2.29 ± 0.4 (treatment: DMSO) and 2.31 ± 0.41 (treatment: MLN4924 1 uM, 8 h).

Turning to RFTAESYTVLGDTLIDGGEHYWEV [FSD1], the protein stability index by setting is: (treatment: DMSO) 2.23 ± 0.3; (treatment: MLN4924 1 uM, 8 h) 2.5 ± 0.43.

Regarding RGFCAFLGSWLVPFAYLTVLDLSK [POMT2], the protein stability index is, setting by setting: (treatment: DMSO) 3.24 ± 0.7; (treatment: MLN4924 1 uM, 8 h) 3.16 ± 0.25.

With RGVRRTASTPTPDDKLFQKLAKVY [CPN1], the protein stability index stood at 2.61 ± 0.29 (treatment: DMSO) and 2.86 ± 0.27 (treatment: MLN4924 1 uM, 8 h).

As to RGYWGDIATGPFVAFGIEADDESL [DNAAF3], the protein stability index runs as follows: (treatment: DMSO) 3.65 ± 0.22; (treatment: MLN4924 1 uM, 8 h) 3.65 ± 0.43.

RHRLRWHSFQSSHRPSLNSVSLQI [DLC1]: the protein stability index reads like this: (treatment: DMSO) 2.41 ± 0.1; (treatment: MLN4924 1 uM, 8 h) 2.58 ± 0.097.

Sequence RIATETDQIGSEIIEELGEQRDQL [VTI1B] registered a protein stability index (treatment: DMSO) of 5.38 ± 0.2 and a protein stability index (treatment: MLN4924 1 uM, 8 h) of 5.37 ± 0.14.

As to RIIDKPRVIEVLPRGATAAVLAPD [SEPHS2], the protein stability index reads like this: (treatment: DMSO) 3.88 ± 0.23; (treatment: MLN4924 1 uM, 8 h) 4.08 ± 0.068.

RIKGVEVFCPLDPPPPYEAVVSQM [FAM189A2] returned a protein stability index (treatment: DMSO) of 2.83 ± 0.33 and a protein stability index (treatment: MLN4924 1 uM, 8 h) of 2.88 ± 0.22.

Take RKDVGCNRFEVTLEKSNKNFSKKI [VPS39]: the protein stability index is 3.62 ± 0.22 (treatment: DMSO) and 3.98 ± 0.2 (treatment: MLN4924 1 uM, 8 h).

Turning to RKEMATILSKMPKPKPPPNSEGEQ [CCNC], the protein stability index amounted to 5.06 ± 0.34 (treatment: DMSO) and 5.06 ± 0.19 (treatment: MLN4924 1 uM, 8 h).

For the sequence RKRIHDSRVAGFNPALQLILTRTD [TOR1AIP2], the protein stability index runs as follows: (treatment: DMSO) 4.2 ± 0.17; (treatment: MLN4924 1 uM, 8 h) 4.18 ± 0.19.

With RKRLAREMQLSEVQIKTWFQNRRM [VENTX], the protein stability index was determined as 2.67 ± 0.24 (treatment: DMSO) and 2.73 ± 0.41 (treatment: MLN4924 1 uM, 8 h).

RLALEKVPKVGQRFNRIGLPPKVG [PI4K2A]: the protein stability index stood at 3.23 ± 0.3 (treatment: DMSO) and 3.21 ± 0.097 (treatment: MLN4924 1 uM, 8 h).

For the sequence RLASYLDKVRALEEANADLEVKIR [KRT16], the protein stability index is, setting by setting: (treatment: DMSO) 2.39 ± 0.26; (treatment: MLN4924 1 uM, 8 h) 2.59 ± 0.5.

Consider RLATVHMSRMINKYKRRRFQKTKN [CLPTM1], for which the protein stability index was determined as 3.16 ± 0.36 (treatment: DMSO) and 3.54 ± 0.49 (treatment: MLN4924 1 uM, 8 h).

Turning to RLCRLAGASSPAAYDEALAELHAH [ZSWIM9], the protein stability index worked out at 3.29 ± 0.36 (treatment: DMSO) and 3.33 ± 0.2 (treatment: MLN4924 1 uM, 8 h).

In the case of RLEPLEHRRRTICGTPNYLSPEVL [PLK2], the protein stability index (treatment: DMSO) turned out to be 3.55 ± 0.19 and the protein stability index (treatment: MLN4924 1 uM, 8 h) amounted to 3.67 ± 0.1.

On to RLQQLRRLRGLLRVLRGRPGAGSR [FBXO33], for which the protein stability index stood at 2.36 ± 0.21 (treatment: DMSO) and 2.66 ± 0.62 (treatment: MLN4924 1 uM, 8 h).

RLQRKLVEPKHCFTSPDYQQQCHE [SDE2]: the protein stability index by setting is: (treatment: DMSO) 3.67 ± 0.2; (treatment: MLN4924 1 uM, 8 h) 3.69 ± 0.2.

Sequence RLSKELLAEYQDLTFLTKQEILLA [CIB1] displayed a protein stability index (treatment: DMSO) of 2.16 ± 0.17 and a protein stability index (treatment: MLN4924 1 uM, 8 h) of 2.11 ± 0.22.

Regarding RLWSLSYTKLPSSLQSTGKCLLYC [SLC25A39], the protein stability index is 2.78 ± 0.62 (treatment: DMSO) and 2.73 ± 0.52 (treatment: MLN4924 1 uM, 8 h).

Regarding RMLTDKEREMAEIRDQMQQQLNDY [LMNB1], the protein stability index was found to be 4.93 ± 0.3 (treatment: DMSO) and 5.08 ± 0.19 (treatment: MLN4924 1 uM, 8 h).

Take RMSEDKPQDYKKRLSVELTSSLFR [CTNNB1]: the protein stability index runs as follows: (treatment: DMSO) 3.4 ± 0.1; (treatment: MLN4924 1 uM, 8 h) 3.42 ± 0.25.

For RNDKIKHVQNQVDEVIDVMQENIT [VAMP4], the protein stability index stood at 4.51 ± 0.33 (treatment: DMSO) and 4.4 ± 0.98 (treatment: MLN4924 1 uM, 8 h).

Regarding RNLQDLARIYIRRTLRNFINDEMQ [PCMTD1], the protein stability index is, setting by setting: (treatment: DMSO) 2.07 ± 0.18; (treatment: MLN4924 1 uM, 8 h) 2.49 ± 0.69.

On to RNTKRDVTLEASRENSKPRAILKP [PPP2R2B], for which the protein stability index by setting is: (treatment: DMSO) 4.44 ± 0.47; (treatment: MLN4924 1 uM, 8 h) 4.79 ± 0.056.

For the sequence RPCRKFLLTGQCDFGSNCRFSHMS [ZMAT5], the protein stability index is, setting by setting: (treatment: DMSO) 4.2 ± 0.74; (treatment: MLN4924 1 uM, 8 h) 4.28 ± 0.58.
